From patent publication US20100159560

Assays:
[1] = biological target: T1, protransglutaminase of Streptoverticillium mobaraense IFO13819 (pro-MTG), P81453
T1 chain: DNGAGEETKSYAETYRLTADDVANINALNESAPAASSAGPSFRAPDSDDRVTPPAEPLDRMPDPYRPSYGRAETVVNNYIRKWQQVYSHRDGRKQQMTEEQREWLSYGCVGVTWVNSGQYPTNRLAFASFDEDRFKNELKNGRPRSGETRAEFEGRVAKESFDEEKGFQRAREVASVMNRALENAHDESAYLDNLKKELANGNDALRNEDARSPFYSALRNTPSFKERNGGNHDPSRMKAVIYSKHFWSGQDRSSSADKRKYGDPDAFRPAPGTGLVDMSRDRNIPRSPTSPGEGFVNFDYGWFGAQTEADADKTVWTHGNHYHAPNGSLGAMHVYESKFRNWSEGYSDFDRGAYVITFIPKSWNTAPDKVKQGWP

[2] = biological target: insulin B
[3] = biological target: T2, Streptomyces subtilisin inhibitor (SSI) derived from actinomycetes, P01006
T2 chain: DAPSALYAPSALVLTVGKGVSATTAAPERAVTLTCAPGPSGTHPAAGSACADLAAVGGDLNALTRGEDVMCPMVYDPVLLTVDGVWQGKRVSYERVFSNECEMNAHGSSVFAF

[4] = biological target: T3, synthetic peptide Gly-Pro-Ser-Phe-Arg-Ala-Pro-Asp-Ser
T3 chain: GPSFRAPDS

B1: neutral metalloprotease SVP35 from Streptoverticillium mobaraense IFO13819 (protein)
chain: GTGTSTYSGTVPLTTTKSGSQYQLNDGARGGHKTYDLNQGTSGTGSLFTNSTDTWGGGRQTAGVDAHYGAAVTWDFYKNVFGRNGIRNDGKAAYSRVHYGNSYVNAFWSDSCFCMTYGDGQNNKNPLTALDVAAHEMSHGVTAATAKLVYSGESGGLNEATSDIFGTAVEFYANNKTDVGDYLIGEKINIYGDGKPLRYMDKPSKDGKSKDSWYSGIGGVDVHYSSGPANHFFYLLSEGSGKKTINGVDYDSPTADGSKVTGIGRDKAQKIWYKALTTQFTSNTNYAKARTGTLNAAASLYGNNSAEYKAVAAAWSAINVK
cleavage points (HPLC separation and sequencing of peptide fragments) [1]: cleaved before (at the N-terminal of) especially Phe, often Leu, sometimes Tyr, Trp, Ile, Val | conversion of pro-MTG to mature MTG (SDS-PAGE time course; TG activity by the hydroxamate method), substrate:enzyme = 200:1 [1]: pro-MTGs were converted to the mature forms, and the produced MTGs were not reduced even after a long-term reaction | cleavage points (HPLC separation and sequencing of peptide fragments) [2]: cleaved before (at the N-terminal of) especially Phe, often Leu, sometimes Tyr, Trp, Ile, Val | relative activity (Gly-Pro-Ser-Phe-Arg-Ala-Pro-Asp-Ser cleavage activity, absence of compounds = 100%) [3]: strongly inhibited | cleavage activity on the peptide substrate (HPLC, decrease of substrate) [4]: SVP35 was allowed to act on Gly-Pro-Ser-Phe-Arg-Ala-Pro-Asp-Ser (SEQ ID NO: 11) as a substrate
